According to a protein production outcome set (Wang et al. 2014):

Test: label from the status in PepcDB records

Sequence	protein production
MTYLQTTADFYAEVAQTPEVGLCCVQSSPLQLPGLVIPAVMQEMNYGCGSTVHPNELGNKSKVLYVGVGGGLEALQFAYFCRQPGAVIAVDPVEAMRQAAQRNLQLAAEKNDWFSVDFVDIRAGDAFTLPVPDNSVDVVAQNCLFNIFEPEDLSRALKEAYRVLKPHGRLIMSDPIAARPIPQHLRQDERLRAMCLSGALTYAEYIQHLIDTGFGQIEIRARRPYRLLDSVTYKLDENLLLESLDSVSFKVPIPSDGACVFTGKTAIYAGSDPLFDDQAGHILQQGVPSAVCDKTALNLGSTYPNKILITDSTWYYDGGGCC	failed
MTYQKIIDKINQQISQHVYLGASLALYDGQWQEFYLGETIPHHKTKAGLVYDLASVSKVVGVGTVIIFLLQANHLKLDEPLQAYYPNFHDSSVTIRQLLTHTSGIDPFIPNRNKLDFAALKQAINHIEVTKTKSFHYTDLNFILLGFLLEEFYDQSLDRIIKEHVLKPFGMEKTSFGPVKRAVPTGKTIPIGRVHDPKAQVLGIHTGSAGLFSNLEDLKCFVNHYLSDAFAKPLTQDFAYADKTRSLAWDLTGDWLFHTGYTGTFILLNIKKQSAAIFLSNRTYEKDERSQWILDRNDLIEVIKAALKKVSDSNCD	failed
MTYSFSKPVSWVFLFTAVIYLVSLSFIQYPATTVLKPIPIVCLIVGVFRTSLSSSAKILLILALVFSLAGDVVLTLPFSLQLELGIACFLLAHCFYITLFLKSFEFNRLHLFYYLPIFLFMGFAAFTMIPYLGNLLIPVMIYFCVLMLMVFSAFQVKKETLTISSGALFFLISDLTLALNLFIYTQADVRIFVMFTYYVAQFLLTFGLVRLYEKGG	failed
MTYVYRKNPVAAATVTVKYIDTQGNSISDSIPLSGNVDQEYTTEQKIISGYTFKEVQGNKSGLFSTTPQTVTYIYTKNPIEIKTGTVTIKYVDTNGNSISDEITKSGNVGSLYTSEQKKILGYNFKEIQGIAEGQFTIESQTVTYVYTKISTPTIIKTSVIPPKTLSVKTLPKESLPETGDKFFGFTLLSGSLLILVSTTLYLLKSRKYK	failed
MVADAAAAGSGGVGVCARWPRASAEGARMKLTPRVHDWYVGRVVLSTVLLTWAVLLGLDLVNAFASEAKDIGQGSYTFGHAVAYVAYTVPRRAYTLFPTAAVIGALMGLGQLAATSELTALRALGVSRKRMSASVVAAMALLTASMVISGETIGPWAQNQADTLKASARYNSDMAASLYAGLWAREGDTFLNALSGEEKLLDGGDTALDLHDVRLYHLDSSGRMQQLTYASVAEHRDGRWTLRQVRRDTFQERSVQRETFPELPWQSQLNPAALAAGLAKPRNLSAHDLEQSIEYRSRNGLDARDYEDQYWSRWFYPLNVLALCMAAIPFSFGSLRSGGLGKRLFLGILFALGFWLLQLFFGRMAGALKLDYRIAYALPPMVMLGVSAWLFRRRSS	failed
MVAKGLIRIVLDILKPHEPIIPEYAKYLSELRGVEGVNITLMEIDKETENIKVTIQGNDLDFDEITRAIESYGGSIHSVDEVVAGRTMVEEVTTPQD	failed
MVAQNSVVVIGASGFGRESLDVLEAMKEAGHSLEIIGVVDDNPAAINLQRLAERKIEYLGTLKEWIEGSPKSCKYVLAIGNPTIRHKLSALLDKSGFDAFTAVHPSAVIGSQVVFGSGAVVCSGAVISTNVRLGVHVHINPNVTIGHDSILEDYVSINPAATISGEVLIMEETLIGAAATVLQGLTIGNRSLVGASSCVTKDISAGKVVKGIPARLEHHHHHH	not failed
MVARDTTAPQVKIVNPVTGNVSGSNVPISVNASDDSGASGITYALYIDGVLKATGKGSTLGYNWNIRNVAAGAHTVQVVAKDAAGNSASSSLEHHHHHH	not failed
MVAVTYSPGPHLERFLASLSLATERPVSVLLADNGSTDGTPQAAVQRYPNVRLLPTGANLGYGTAVNRTIAQLGEMAGDAGEPWVDDWVIVANPDVQWGPGSIDALLDAASRWPRAGALGPLIRDPDGSVYPSARQMPSLIRGGMHAVLGPFWPRNPWTTAYRQERLEPSERPVGWLSGSCLLVRRSAFGQVGGFDERYFMYMEDVDLGDRLGKAGWLSVYVPSAEVLHHKAHSTGRDPASHLAAHHKSTYIFLADRHSGWWRAPLRWTLRGSLALRSHLMVRRSRRRKLKLVEGRH	failed
MVCYNNPMELLMKIIAFSCHLFFIGLSYQLLISVIDWTKFSHYHPENLGRLRLFVFLLATALGYLVSHCMLELLQISQTLFFEFR	failed
MVDFIRRIQISCVVSLTDSRHQRRTKSHHHPLNPPNPVAESRKRSKGKQKEKVNNMVLFDQATYDKLMSEAPKFKLITPSILSDRLRINGSLARKAIRDLMVKGTIRMVSTHSSQQINTRATCLT	failed
MVDMDWKRKMVSSDLPNSPKLSSKLHVTIPSPFKIVPVSSPISCSAPALCSAYELYLRLPELRKLWSSRDFPQWTSEPILKPALQALEISFRLVFAVCSDTRPYINHREWNRRLDSLITKQIQLVAAICEDEEEEGISAEAPVGGGRSSLSLLPQLATWRRSEALGKKILYTIDNEMSRCKYTLGLGEQNIAGKPNLRYDAICRPNEIYSLKDNPYADHIDNHENQTLYIIHQILESWIYASGNLLNRIVSSIEEEKFGKASNDVYLLEKIWKILAEIEDLHMLMDPEDFLKLKKQLQIKSTGKNDAFCFRSKGLVEMMKMSKDLRQKVPAVLAVEVDPTGGPRLQEAAMKLYARKTECDKIHLLQGMQAVEAAAKSFFFGYRQLVAAMMGSAEMNATASQESCDSLSQIFMEPTYFPSLDAAKTFLGEFWSHLG	failed
MVDSYDDSLDGEKSKTQVKRELHALVDLGERLTTLKADVLAKLPLTDALRKALAEAPKHTANIARKRHILFIGKLMRDQDQEAILVLLDQLDASTRQYNERFHNLERWRDRLIAGDDADLEKFVIEYPDADRQQLRSLIRQAQHEVARNKPPATSRKIFKYIRELDELQ	not failed
MVDSYDDSLDGEKSKTQVKRELHALVDLGERLTTLKADVLAKLPLTDALRKALAEAPKHTANIARKRHILFIGKLMRDQDQEAILVLLDQLDASTRQYNERFHNLERWRDRLIAGDDADLEKFVIEYPDADRQQLRSLIRQAQHEVARNKPPATSRKIFKYIRELDELQRGLR	not failed
MVDWSTLPKDLLDLISKSLESSFDLIQFRSVCSSWRSAAEPKSPLPTHHLPILPDNGGSLFPDSAVGFRLSQRSILLIKPHEPCIESDSFGWLIKVEEDLNVPRKVTLLDPLCDTRNSIPENFPRVLDMSKFKVRELGREFKLHYFNTVGDIVESLYLEKAVVKYLDCDGDYKFVLLTIHVSGKLAVFRSWDRAWTVINDMPSPYDDVMLFDGRFFAVDNNGRTVVVDYSSLKLTLVASPVFGGDKKFLIESCGEMLLVDMYLSLEAVEGDPGFVEEIFEHPAFYMNERTVKFKVYRFVEREESWVDVYDLEDKMLFLGDDSTFSASASDILPLCDGSSVFFNGNVFNGEDLGAMQDRDLGVFDFRSGKIELVQKLPEYAKLFWPPPPWITSHARAEDHIGETSSQS	failed
MVEAIIFDMDGVLFDTEKYYYDRRASFLGQKGISIDHLPPSFFIGGNTKQVWENILRDEYDKWDVSTLQEEYNTYKQNNPLPYKELIFPDVLKVLNEVKSQGLNIGLASSSVKADIFRALEENRLQAFFDIVLSGEEFKESKPNPEIYLTALKQLNVQASRALIIEDSEKGIAAGVAADVEVWAIRDNLFGMDQSAAKGLLDSLTDVLDLI	not failed
